Tested on: CCCCCCCC(=O)Oc1ccc([N+](=O)[O-])cc1
Assay: purified protein
Assay type: biochemical, Pseudomonas chlororaphis
Settings: optimal assay conditions (optimum pH 6.0, 50 °C), 0.1-3.0 mmol/L substrate

LIP4 (Pseudomonas chlororaphis) gave a Km of 333 µM.

From article PMC10003648, “Polymer-Degrading Enzymes of Pseudomonas chloroaphis PA23 Display Broad Substrate Preferences” (International Journal of Molecular Sciences, 2023)
